The target in one test is T1, LILRA1 (human, UniProt O75019 17-461).
T1 construct: Bought protein; limits of the extracellular domain are marked by bold type not visible here; whole entry named; also called recombinant human LILRA1
As to the kind of experiment: SPR, Biacore 8K cross-reactivity study. As for the experimental part:
(§1) SPR was used to determine the specificity of four humanized anti-ILT4 mAbs for binding to LILRB2 and to determine any cross-reactivity with nine other LILRA and LILRB family members. LILR proteins were purchased from Acro Biosystems or R&D Systems, with sequence provided below. The studies were performed with a Biacore 8K instrument using a CM4 sensor chip with a running buffer of HBS-P+, 100 μg/mL BSA. Anti-human Fc specific capture surfaces were prepared using standard amine coupling chemistry. MAb was captured to flow cell 2 with flow cell 1 serving as the reference flow cell. Each of the nine family members and LILRB2 were injected at 100 nM at 30 μL/min for 90 sec with 240 sec of dissociation. […] All sensorgrams were doubled-referenced during processing of the data.
Background: Surface plasmon resonance follows binding to a sensor surface in real time, without labels.

In test [1] the target is T2, LILRA3 (human, UniProt Q8N6C8 24-439).
T2 construct: Bought protein; limits of the part used are marked by bold type not visible here; whole entry named; also called recombinant human LILRA3
As to the kind of experiment: SPR, Biacore 8K cross-reactivity study, single concentration 100 nM; lower end of the range 600-700 nM. The protocol: as §1

In a further test the target is T3, LILRA2 (human, UniProt Q8N149 24-449).
T3 construct: Bought protein; limits of the extracellular domain are marked by bold type not visible here; whole entry named; also called recombinant human LILRA2
The experiment in a line: SPR, Biacore 8K, mAb captured on anti-human Fc, analyte injected. The protocol: as §1

Another test has as its target T4, LILRB3 (human, UniProt O75022 24-443).
T4 construct: Bought protein; limits of the extracellular domain are marked by bold type not visible here; whole entry named; also called recombinant human LILRB3; ILT5
Described as above. As for the experimental part:
as §1

The target of the next test is T5, LILRB4 (human, UniProt Q8NHJ6 22-259).
T5 construct: Bought protein; limits of the extracellular domain are marked by bold type not visible here; whole entry named; also called recombinant human LILRB4; ILT3
The description is as above. As for the experimental part: as §1

The next test has as its target T6, LILRA5 (human, UniProt A6NI73 42-268).
T6 construct: Bought protein; limits of the extracellular domain are marked by bold type not visible here; whole entry named; also called recombinant human LILRA5
Described as above. The protocol:
as §1

For a further test, the target named is T7, LILRA4 (human, UniProt P59901 24-446).
T7 construct: Bought protein; limits of the extracellular domain are marked by bold type not visible here; whole entry named; also called recombinant human LILRA4
Described as above. As for the experimental part:
as §1

Another test addresses T8, LILRA6 (human, UniProt Q6PI73 24-447).
T8 construct: Bought protein; limits of the extracellular domain are marked by bold type not visible here; whole entry named; also called recombinant human LILRA6
The test is described as above. The protocol: as §1

Test [2] has as its target T9, recombinant human ILT4 (LILRB2) (human, UniProt Q8N423 22-460).
T9 construct: Bought protein (Acro Biosystems or R&D Systems); also called ILTR4
As to the kind of experiment: SPR, Biacore T200, mAb captured on anti-Fc, ILT4 injected, medium resolution, 25 C. An outline of the steps:
(§2)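 Mouse, chimeric or humanized mAbs captured on anti-Fc surfaces (CM4 chip); ILT4 injected at 101 to 0.79 nM, 2-fold series, 90 s association, 1200 s dissociation. Run at 25° C in HBS-P+ pH 7.4 with 100 μg/ml BSA; double-referenced global 1:1 fit with mass-transport term, KD=koff/kon.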

Test [3] has as its target T9, recombinant human ILT4 (LILRB2). As to the kind of experiment: SPR, Biacore 8K, mAb captured on anti-human Fc, LILRB2 at 100 nM; legend: ++++ tight binding (<100 pM KD). The protocol: as §1
Test [4] has the same target. As to the kind of experiment: SPR, Biacore T200, medium resolution; koff held at its limit of 4.27e-5 s^-1. An outline of the steps: as §2
Test [5] has as its target T10, human ILT4 expressed on cells (human, UniProt Q8N423 22-597).
T10 construct: whole, on cells; The same entry is used for endogenous ILT4 of human macrophages; also called CHO-S/ILT4 cells; ILT4-CHO cells
The experiment in a line: flow based HLA-G blocking assay.

The target in test [6] is T9, recombinant human ILT4 (LILRB2). As to the kind of experiment: SPR, high resolution kinetics, triplicate, LALA antibody.
For test [7] the target is unchanged. As to the kind of experiment: SPR, high resolution kinetics, triplicate, LALA antibody; 95% CI in parentheses.
Test [8] has as its target T2, LILRA3. As to the kind of experiment: SPR, Biacore 8K cross-reactivity study, single concentration 100 nM; upper end of the range 600-700 nM. The protocol:
as §1

Test [9] has as its target T2, LILRA3. As to the kind of experiment: SPR, Biacore 8K, mAb captured on anti-human Fc, LILRA3 at 100 nM; legend: + weak binding (~600-700 nM KD). As for the experimental part:
as §1

Test [10] deals with T9, recombinant human ILT4 (LILRB2). As to the kind of experiment: KinExA, solution equilibrium, n-curve analysis. As for the experimental part:
Kinetic Exclusion Assay (KinExA®) was performed to measure the equilibrium binding affinity and kinetics between human ILT4 and four humanized LALA-Fc modified antibodies in solution. For affinity analysis, the equilibrium dissociation constant, KD, was experimentally determined and reflects the strength of the binding interaction. The rate of association, kₒₙ, was also experimentally determined, while the rate of dissociation, koff, is calculated based on the following equation: koff=KD×kₒₙ
The binding affinity (KD), association (kₒₙ), and dissociation rate constants (koff) were measured for 4 different Humanized LALA IgG antibodies to ILT4 using KinExA. An n-curve analysis of at least two different curves, run at two different CBP concentrations, was used to determine the KD of the interactions The ILT4 was used as the concentration reference for all curves. All of the binding systems have low error and well defined 95% confidence intervals giving confidence to the measurements: […]

The Kd is the free concentration of one partner at which half of the binding sites on the other are occupied at equilibrium, for simple one-to-one binding. One may read the kon as the rate constant with which the complex forms. For orientation: KD means a measure of binding affinity in units of concentration. In general, koff refers to the rate constant with which the complex falls apart. Broadly, the IC50 is the point on the concentration scale where inhibition reaches its midpoint. A higher IC50 goes with weaker potency.

T2 sequence (Q8N6C8 24-439 A105V limits assumed): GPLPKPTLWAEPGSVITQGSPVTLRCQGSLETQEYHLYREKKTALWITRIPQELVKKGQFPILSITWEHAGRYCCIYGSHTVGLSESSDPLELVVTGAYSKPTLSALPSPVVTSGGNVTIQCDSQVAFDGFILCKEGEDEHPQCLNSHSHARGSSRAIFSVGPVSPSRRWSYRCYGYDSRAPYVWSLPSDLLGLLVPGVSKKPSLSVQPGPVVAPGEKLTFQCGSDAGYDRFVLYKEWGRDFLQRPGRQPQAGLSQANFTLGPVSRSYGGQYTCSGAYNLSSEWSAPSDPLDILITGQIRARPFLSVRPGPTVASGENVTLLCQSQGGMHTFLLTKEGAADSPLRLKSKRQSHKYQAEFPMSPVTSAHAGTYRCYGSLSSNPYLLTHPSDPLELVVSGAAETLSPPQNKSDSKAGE
T9 sequence (Q8N423 other isoform, or with tags, fused parts or gaps limits assumed): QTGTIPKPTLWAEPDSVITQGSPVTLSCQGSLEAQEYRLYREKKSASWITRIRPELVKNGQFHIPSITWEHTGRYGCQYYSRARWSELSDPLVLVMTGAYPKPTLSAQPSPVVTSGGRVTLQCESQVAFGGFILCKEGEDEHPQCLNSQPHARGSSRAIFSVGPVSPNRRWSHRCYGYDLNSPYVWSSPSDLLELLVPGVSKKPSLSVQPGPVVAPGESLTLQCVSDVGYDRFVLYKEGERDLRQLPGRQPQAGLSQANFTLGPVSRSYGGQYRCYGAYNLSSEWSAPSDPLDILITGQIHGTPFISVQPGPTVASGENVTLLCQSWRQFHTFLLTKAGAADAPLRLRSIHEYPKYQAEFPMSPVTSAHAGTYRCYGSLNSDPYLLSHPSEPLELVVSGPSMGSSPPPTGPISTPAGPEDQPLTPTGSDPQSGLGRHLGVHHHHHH
T6 sequence (A6NI73 other isoform, or with tags, fused parts or gaps): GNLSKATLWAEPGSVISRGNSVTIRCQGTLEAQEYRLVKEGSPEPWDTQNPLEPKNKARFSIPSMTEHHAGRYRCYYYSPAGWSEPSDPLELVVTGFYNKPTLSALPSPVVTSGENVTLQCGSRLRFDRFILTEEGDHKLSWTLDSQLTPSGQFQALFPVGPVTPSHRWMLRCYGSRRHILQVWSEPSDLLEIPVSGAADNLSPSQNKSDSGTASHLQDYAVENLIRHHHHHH
T7 sequence (P59901 other isoform, or with tags, fused parts or gaps): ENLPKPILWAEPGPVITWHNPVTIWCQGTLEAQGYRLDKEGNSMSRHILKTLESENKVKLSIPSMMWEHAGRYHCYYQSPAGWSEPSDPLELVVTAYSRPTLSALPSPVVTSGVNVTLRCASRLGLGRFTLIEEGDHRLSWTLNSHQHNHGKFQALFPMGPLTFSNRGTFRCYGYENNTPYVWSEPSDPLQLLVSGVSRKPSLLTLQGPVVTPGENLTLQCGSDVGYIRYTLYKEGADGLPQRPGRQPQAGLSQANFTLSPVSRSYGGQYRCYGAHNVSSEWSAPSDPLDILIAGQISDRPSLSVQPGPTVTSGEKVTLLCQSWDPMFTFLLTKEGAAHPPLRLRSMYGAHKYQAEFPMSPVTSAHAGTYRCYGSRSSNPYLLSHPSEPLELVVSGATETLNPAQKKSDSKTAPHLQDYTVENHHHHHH
T8 sequence (Q6PI73 other isoform, or with tags, fused parts or gaps): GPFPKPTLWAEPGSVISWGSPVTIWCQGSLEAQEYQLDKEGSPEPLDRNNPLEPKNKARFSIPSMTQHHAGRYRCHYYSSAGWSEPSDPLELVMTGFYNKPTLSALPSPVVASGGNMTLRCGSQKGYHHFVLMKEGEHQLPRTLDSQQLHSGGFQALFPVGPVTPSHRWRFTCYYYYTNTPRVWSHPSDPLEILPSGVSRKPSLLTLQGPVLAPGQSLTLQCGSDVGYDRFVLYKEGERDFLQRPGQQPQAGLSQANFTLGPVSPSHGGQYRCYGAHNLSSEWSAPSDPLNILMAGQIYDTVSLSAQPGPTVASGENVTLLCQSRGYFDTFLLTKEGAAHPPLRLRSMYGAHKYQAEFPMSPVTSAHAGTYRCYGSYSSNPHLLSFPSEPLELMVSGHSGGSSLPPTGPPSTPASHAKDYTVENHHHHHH
T10 sequence (Q8N423 22-597): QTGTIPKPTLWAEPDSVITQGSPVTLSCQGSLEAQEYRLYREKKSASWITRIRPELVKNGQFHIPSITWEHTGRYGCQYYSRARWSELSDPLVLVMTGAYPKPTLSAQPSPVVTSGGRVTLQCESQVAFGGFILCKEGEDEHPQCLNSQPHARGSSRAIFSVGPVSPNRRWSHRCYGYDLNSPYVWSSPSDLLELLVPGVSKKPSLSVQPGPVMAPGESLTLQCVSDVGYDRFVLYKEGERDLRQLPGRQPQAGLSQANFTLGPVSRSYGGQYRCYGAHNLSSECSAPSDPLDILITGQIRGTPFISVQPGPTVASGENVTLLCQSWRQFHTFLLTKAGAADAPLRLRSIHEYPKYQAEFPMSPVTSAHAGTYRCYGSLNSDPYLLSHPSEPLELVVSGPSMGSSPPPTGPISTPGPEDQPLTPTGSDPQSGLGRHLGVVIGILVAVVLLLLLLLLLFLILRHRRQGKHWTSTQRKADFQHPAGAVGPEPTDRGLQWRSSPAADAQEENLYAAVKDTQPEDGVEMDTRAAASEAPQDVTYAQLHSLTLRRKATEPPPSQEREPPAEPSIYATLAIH
T5 sequence (Q8NHJ6 other isoform, or with tags, fused parts or gaps): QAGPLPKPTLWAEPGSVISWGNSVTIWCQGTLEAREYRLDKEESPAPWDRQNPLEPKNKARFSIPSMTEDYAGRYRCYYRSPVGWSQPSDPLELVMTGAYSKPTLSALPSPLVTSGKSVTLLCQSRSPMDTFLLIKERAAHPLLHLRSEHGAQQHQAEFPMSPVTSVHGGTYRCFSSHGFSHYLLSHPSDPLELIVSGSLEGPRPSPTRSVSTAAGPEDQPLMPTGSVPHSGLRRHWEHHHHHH
T3 sequence (Q8N149 other isoform, or with tags, fused parts or gaps): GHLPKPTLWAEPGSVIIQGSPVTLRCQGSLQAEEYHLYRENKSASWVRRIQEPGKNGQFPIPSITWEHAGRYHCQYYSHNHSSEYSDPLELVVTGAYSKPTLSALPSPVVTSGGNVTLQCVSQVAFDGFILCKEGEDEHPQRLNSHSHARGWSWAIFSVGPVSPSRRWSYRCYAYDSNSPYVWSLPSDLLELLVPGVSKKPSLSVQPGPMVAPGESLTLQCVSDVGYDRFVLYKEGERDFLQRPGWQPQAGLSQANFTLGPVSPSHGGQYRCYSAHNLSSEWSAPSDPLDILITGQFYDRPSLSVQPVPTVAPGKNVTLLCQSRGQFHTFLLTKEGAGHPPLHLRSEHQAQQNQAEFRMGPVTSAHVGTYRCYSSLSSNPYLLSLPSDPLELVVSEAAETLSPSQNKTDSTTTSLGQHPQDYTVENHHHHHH
T4 sequence (O75022 other isoform, or with tags, fused parts or gaps): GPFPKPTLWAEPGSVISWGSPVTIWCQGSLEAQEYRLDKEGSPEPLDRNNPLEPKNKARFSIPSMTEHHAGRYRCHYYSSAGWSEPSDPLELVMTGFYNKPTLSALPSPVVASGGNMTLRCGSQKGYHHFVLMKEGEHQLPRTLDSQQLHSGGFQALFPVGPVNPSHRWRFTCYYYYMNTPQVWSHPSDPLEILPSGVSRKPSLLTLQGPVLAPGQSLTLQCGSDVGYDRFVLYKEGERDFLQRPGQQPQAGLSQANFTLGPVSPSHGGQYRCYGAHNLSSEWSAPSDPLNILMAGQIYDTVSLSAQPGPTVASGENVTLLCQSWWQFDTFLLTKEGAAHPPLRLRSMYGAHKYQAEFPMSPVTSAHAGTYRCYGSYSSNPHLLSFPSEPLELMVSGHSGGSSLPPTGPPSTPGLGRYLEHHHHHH
T1 sequence (O75019 other isoform, or with tags, fused parts or gaps): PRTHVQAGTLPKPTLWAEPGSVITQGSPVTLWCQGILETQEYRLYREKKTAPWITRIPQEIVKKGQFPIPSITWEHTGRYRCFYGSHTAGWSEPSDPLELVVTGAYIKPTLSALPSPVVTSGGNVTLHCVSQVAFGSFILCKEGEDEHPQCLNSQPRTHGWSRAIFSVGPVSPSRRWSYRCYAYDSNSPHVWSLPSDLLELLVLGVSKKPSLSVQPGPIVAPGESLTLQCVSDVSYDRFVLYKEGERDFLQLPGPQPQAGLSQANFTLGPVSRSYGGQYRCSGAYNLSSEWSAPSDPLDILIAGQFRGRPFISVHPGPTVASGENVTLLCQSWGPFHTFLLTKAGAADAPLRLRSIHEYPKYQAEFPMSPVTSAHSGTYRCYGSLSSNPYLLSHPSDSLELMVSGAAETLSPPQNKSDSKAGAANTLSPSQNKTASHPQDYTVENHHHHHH

B1: Hz180-LALA (antibody, human IgG1, kappa, L234A L235A, V domains shown)
VH: QVQLVQSGAEVKKPGSSVKVSCKASGYSFIGYFMNWMRQAPGQGLEWIGRINPYNGDIFYNQKFKGRVTITVDKSTSTAYMELSSLRSEDTAVYYCARGITVAAGSFDVWGQGTTVTVSS
VL: DIVMTQSPDSLAVSLGERATINCRASESVDNYGNTFMHWYQQKPGQPPKLLIYRASNLESGIPDRFSGSGSGTDFTLTISSLQAEDVAVYYCQQSSDHPLTFGGGTKVEIKR
notes: Humanized L180S4, human IgG1 L234A/L235A, kappa; also called Humanized 180_04; Hz 180 04
Regarding B1, the binding result is on record as “binds” with LILRA1; “no binding (tested: 100 nM)” in the test with LILRA2; “no binding (tested: 100 nM)” with LILRB3; “no binding (tested: 100 nM)” with LILRB4; “no binding (tested: 100 nM)” in the test with LILRA5; “no binding (tested: 100 nM)” with LILRA4. Besides, the binding result with LILRA6 is reported as “no binding (tested: 100 nM)”. Moreover, the Kd is 600 to 700 nM with LILRA3 [1]; at most 0.053 nM in test [4]; 0.0016 nM in test [6]; 600 to 700 nM in the test with LILRA3 [8]; 0.000759 nM in test [10]. Further, the kon was 812000 M⁻¹ s⁻¹ in test [2] and 3.95e+06 M⁻¹ s⁻¹ in test [7]. The dissociation constant (KD) is under 0.1 nM in test [3] and 600 to 700 nM with LILRA3 [9]. Further, the koff in test [4] was at most 4.27e-05 s⁻¹; in test [6] it was 6.3e-06 s⁻¹. This molecule also came in with an IC50 in test [5] of 0.051 µg/mL.

For the origin of these results see patent US20260167714A1 (COHERUS BIOSCIENCES, published 2026).
